A word on the Km: it is the substrate concentration at which the rate is half of its maximum. As usually defined, the Vmax is the rate approached at saturating substrate. Broadly, the kcat is the maximal rate divided by the concentration of active sites. A word on the kcat/Km: it is the turnover number divided by the Michaelis constant.

Substrate in the series: NC(=O)C1=CN([C@@H]2O[C@H](COP(=O)(O)OP(=O)(O)OC[C@H]3O[C@@H](n4cnc5c(N)ncnc54)[C@H](OP(=O)(O)O)[C@@H]3O)[C@@H](O)[C@H]2O)C=CC1
The experiment in a line: purified protein. The settings on record: FAD; two [4Fe-4S] clusters oxidized by L-FAD. Type of series: biochemical, Pyrococcus furiosus.

B1: NfnL (large subunit of NADH-dependent reduced-ferredoxin: NADP+ oxidoreductase NfnSL) (Pyrococcus furiosus DSM 3638) (protein)
chain: MPRLIKDRVPTPERSVGERVRDFGEVNLGYSWELALREAERCLQCPVEYAPCIKGCPVHINIPGFIKALRENRDNPSKAVREALRIIWRDNTLPAITGRVCPQEEQCEGACVVGKVGDPINIGKLERFVADYAREHGIDDELLLEEIKGIKRNGKKVAIIGAGPAGLTCAADLAKMGYEVTIYEALHQPGGVLIYGIPEFRLPKEIVKKELENLRRLGVKIETNVLVGKTITFEELREEYDAIFIGTGAGTPRIYPWPGVNLNGIYSANEFLTRINLMKAYKFPEYDTPIKVGKRVAVIGGGNTAMDAARSALRLGAEVWILYRRTRKEMTAREEEIKHAEEEGVKFMFLVTPKRFIGDENGNLKAIELEKMKLGEPDESGRRRPIPTGETFIMEFDTAIIAIGQTPNKTFLETVPGLKVDEWGRIVVDENLMTSIPGVFAGGDAIRGEATVILAMGDGRKAAKAIHQYLSKEK
notes: isolated NfnL-WT subunit
In the case of B1, the Km is 1300 ± 100 µM, the Vmax is 3000 µM/min, the kcat amounted to 2.3 ± 0.3 s⁻¹ and the kcat/Km stood at 1700 ± 300 M⁻¹ s⁻¹.

The values are drawn from PMC9503767, “Site-Differentiated Iron–Sulfur Cluster Ligation Affects Flavin-Based Electron Bifurcation Activity” (Metabolites, 2022).
